# Laboratory results reported in patent publication US12215130 (dated 2025).
# Read-outs that look alike come from different tables or passages of the source.
# T1: Cynomolgus monkey serum albumin (cynomolgus monkey)
# T1 chain: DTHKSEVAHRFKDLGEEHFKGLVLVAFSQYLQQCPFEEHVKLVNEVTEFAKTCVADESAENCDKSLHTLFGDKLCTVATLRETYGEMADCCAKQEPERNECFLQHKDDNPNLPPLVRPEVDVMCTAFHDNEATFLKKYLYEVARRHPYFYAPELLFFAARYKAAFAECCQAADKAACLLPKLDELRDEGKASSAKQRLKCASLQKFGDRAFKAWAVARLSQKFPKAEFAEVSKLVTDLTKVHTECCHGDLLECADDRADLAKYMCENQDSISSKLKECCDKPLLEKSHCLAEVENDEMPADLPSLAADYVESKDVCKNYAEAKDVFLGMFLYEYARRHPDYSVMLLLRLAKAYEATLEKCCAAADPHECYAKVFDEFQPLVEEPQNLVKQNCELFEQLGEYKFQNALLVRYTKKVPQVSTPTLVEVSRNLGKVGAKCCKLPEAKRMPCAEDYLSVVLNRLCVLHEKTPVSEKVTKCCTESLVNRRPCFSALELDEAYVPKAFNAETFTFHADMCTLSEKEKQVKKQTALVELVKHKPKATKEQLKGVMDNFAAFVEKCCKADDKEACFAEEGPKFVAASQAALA
# B1: AWT-P367 (antibody, V domains shown)
# VH: QVQLVESGGGLVQPGGSLRLSCAASGSTWSINTLAWYRQAPGKQRDLVARISSGGSTHYADSVKGRFTVSRDNAENTLVLQMNSLKPEDTAVYYCYAQSTWYPPSWGQGTQVTVSS
# B2: AWT-P610 (designed binder)
# chain: QVQLVESGGGVVQPGGSLRLSCAASGFAFRGFGMSWVRQAPGKGLEWVSSINNGGSDTYYADSVKGRFTISRDNSKNTLYLQMNSLRAEDTAVYYCAIGGPGASPSGQGTQVTVSS
# Assays:
# Human serum albumin [1] = biological target: Human serum albumin (human); test: BLI, pH 7.4
# [2] = biological target: T1, Cynomolgus monkey serum albumin; test: BLI, pH 5.5
# [3] = biological target: T1, Cynomolgus monkey serum albumin; test: BLI, pH 7.4
# Human serum albumin [4] = biological target: Human serum albumin (human); test: BLI, pH 5.5
# Human serum albumin [5] = biological target: Human serum albumin (human)
Binder,Kd (Human serum albumin [1]) [nM],Kd [2] [nM],Kd [3] [nM],Kd (Human serum albumin [4]) [nM],Kd (Human serum albumin [5]) [nM]
B1,29.6,20.5,18.9,9.6,–
LAEAKVLANRELDKYGVSDYYKNLINNAKTVEGVKALIDEILAALP [G148-ABD-wt],–,–,–,–,~1.2
B2,43,47.1,49.6,39.8,–
